Test results: the supplement of paper PMC9170038

What follows are sequences tested on MS2 coat protein (assay: apparent KD of MS2 coat protein; higher = weaker reporter binding). Conditions: Eterna round: R107; input ligand: theophylline 20 uM.
Outline: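 Designed RNA switches were made by on-chip transcription from Illumina sequencing clusters and then titrated with SNAP-549-labelled MS2 coat protein. Twofold steps ran from 0.7 or 1.5 nM to 3 µM, each lasting 0.8–1.5 h early and 10–20 min late, in 100 mM Tris-HCl pH 7.5, 80 mM KCl, 4 mM MgCl2, without or with constant ligand. Apparent KD is the per-design median of normalised cluster binding-curve fits.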
In the case of “GGUAGCAGGACUGAUACCAGUCCAGCGAAUCAUACGACGCAACAUGAGGAUCACCCAUGUGACCCUUGGCAGCAGUCUGCUACCG [Same State Theophylline B GF 29]”, the “apparent KD of MS2 coat protein” value is reported as 23 nM. In the case of “UACUUGCUGACGGCCGCCACUAGUACAUGAGGAUCACCCAUGUACGGUCGCCCGGUGUGAUCCACUAGGACCGGGUCAGCAAGAU [(Trp1)-(Ms2)-(T)'-(M)'-(Trp2)_Design24]”, the “apparent KD of MS2 coat protein” value is reported as 42.9 nM. For “UAAAAUAUCUGGGUGUAGGUAAUAACAGAUACCAGCCAGAUAACUGGCCCUUGGCAGCUGAAAACAUGAGGAUCACCCAUGUAAA [TheoAS 22 #OpenEnded #Ms2Late]”, the “apparent KD of MS2 coat protein” value was 50.3 nM. In the case of “UCAUGACAUGGGAAUAAAUAAGAAGGCGAAGGAGCGUGAAGAUUCACAGGUAGGUCGCGCAAAAUACAUGAGGAUCACCCAUGUU [JR_Nu_ExcArginiA_Sub032]”, the “apparent KD of MS2 coat protein” value is reported as 53.2 nM. In the case of “GGGUAUGAUCCGGAUACCAGCGAACAUGAGGAUCACCCAUGUGACCUAAGAUAGGCUAAACGCCCUUGGCAGCCGAGAUUGCGUU [Same State Theophylline B GF7]”, the “apparent KD of MS2 coat protein” value is reported as 49.7 nM.

Same assay, conditions: Eterna round: R107; input ligand: theophylline 2 mM
In the case of “CCUAUGCAGUCGGCCGCCACUGAUAACGUUAUCGUUACCUCAGAAACAUGAGGAUCACCCAUGUACAGGACCGGGACUGUAUAGG [Ex Tryptophan B 19]”, the “apparent KD of MS2 coat protein” value is reported as 13.2 nM. “CUAAGAGCGGCGGCCGCCACUGGUAACCGAGAGGAGGAGCUUCUGAACAUGAGGAUCACCCAUGUCAGGACCGGGUCGUCUUAGA [Same State - Tryptophan B]” was tested, and the “apparent KD of MS2 coat protein” value was 14.9 nM. With “CCGUCACAUGAGGAUCACCCAUGUGCGGAAGGAGCGGACGAAAGUCCAGGUAGGUCGCCGUAUAGCCAAUGACCAGCAGUGUCGG [XARG-A 21]” the “apparent KD of MS2 coat protein” value was 14.8 nM. With “GUGGCGAUCACGGCCGCCACUGAGCAGGUCGAGCUUGACAUGAGGAUCACCCAUGUCUGACGAUACAGGACCGGGUGAUCUCCGC [Titiinanon]” the “apparent KD of MS2 coat protein” value was 149 nM. “UAUAUAUAUCACGAACUGUGGUGUAUGUCUCGAGGACCGGUACGGCCGCCACUCGCGCGGCCUCACAUGAGGAUCACCCAUGUCC [XTryp A #5]” was tested, and the “apparent KD of MS2 coat protein” value was 107 nM. For “AGCUCGCAUCCUCUAGCGUCAAAGACGCGUCGAGGACCGGUACGGCCGCCACUCGACGUGAGGAUCACCCACGUCUAAGCGAGCA [TrypAX 10 #SwitchBubble #AlternativeMS2 #MS2Late #CuTurnoff]”, the “apparent KD of MS2 coat protein” value was 30.6 nM. For “AACAUGAGGAUCACCCAUGUCUGAACUGAAGGAGCGCUAAAUAAGGCAGGUAGGUCGCGGAAUUUUGUGUGCAUAUGCAUAUGGG [9.I]”, the “apparent KD of MS2 coat protein” value was 29.8 nM. In the case of “CUCUGAGUGAGGAAUCACUCAGAGGCGGAUACCAGCGAGGUCCAUCGCCCUUGGCAGCCGAACAUGAGGAUCACCCAUGUCGGUA [#1 Same State - Theophylline A Attempt #23 (HarryS)]”, the “apparent KD of MS2 coat protein” value is reported as 13.5 nM. “GUCCAAAGGUCGGCCGCCACUGUAGAGUGUGUUCUUUCACAUGAGGAUCACCCAUGUUGUUAUUAUAGGACCGGGAUUGUAGGAC [#21 Exclusion Tryptophan B]” was tested, and the “apparent KD of MS2 coat protein” value was 23.4 nM. For “AGUCUUAGUGGAAGGAGCGCAGUCAUAACAUGAGGAUCACCCAUGUCGAGGUGAGGGUCAUUGCAGGUAGGUCGCCAUAAUAGGA [#16 Same State - Arginine B]”, the “apparent KD of MS2 coat protein” value was 322 nM. With “GCGUACGAUCGGGAUACCAGACAUUGCCGUUAGGGUGAACUUGAGGAUCACCCAAGUUUUGUCCCUUGGCAGCCCGAUCGUACGC [ETB NP+V+V2 #9 Diff Apt, Same Structure]” the “apparent KD of MS2 coat protein” value was 220 nM. For “UACAUGAGGAUCACCCAUGUCCCAUGUGAACGAGGACCGGUACGGCCGCCACUCGAAUAAGGCGGCACAUGAGGAUCACCCACAU [AstrosSSTry#2]”, the “apparent KD of MS2 coat protein” value was 399 nM. With “UACCCAUAGGGAAGGAGCGCGCUAACAUGAGGAUCACCCAUGUAAAGGGUUUCUGGCUUAGCGCAGGUAGGUCGCCCUAUGGGUA [#10 Exclusion - Arginine B]” the “apparent KD of MS2 coat protein” value was 1050 nM. For “UAAUCCGGUCCUCGAUAAUCCUCAUGUAAACGAGGACCGGUACGGCCGCCACUCGAUAACAUGAGGAUCACCCAUGUAAUAAUAA [|T'-M'-Trp-Ms2|_Design14]”, the “apparent KD of MS2 coat protein” value was 82.2 nM. For “AGUUGACAAAAGUCAGCAACAUGAUCCGAAGGAGCGGGCGAAAGCCCAGGUAGGUCGCGGACAUGAGGAUCACCCAUGUCUCCUU [ArgAX 3 #OpenEnded #Sliding]”, the “apparent KD of MS2 coat protein” value was 100 nM. “GGUGUUACGUCGGCCGCCACUAUACUACAUGAGGAUCACCCAUGUCAUCCCUUCAAUUGGUAGCCUAGGACCGGGACAGAAUUCG [theeternabot_exclusion_MS2_Trp_B_8]” was tested, and the “apparent KD of MS2 coat protein” value was 43.8 nM. For “CUACAUUUGUAGAAACCGGUCAACAAUAAUCGAGGACCGGUACGGCCGCCACUCGUAUAAUUUAUUACAUGAGGAUCACCCAUGU [Tryptophan A 2]”, the “apparent KD of MS2 coat protein” value was 15.4 nM. With “ACAUGAGGAUCACCCAUGUGAAGGCACGAUACCAGCUGAUCCCGUGGCCCUUGGCAGCGUCACGUUUGGUCCCGCGGAUGAGACG [crcmullin]” the “apparent KD of MS2 coat protein” value was 17 nM. “UACUUGCUGACGGCCGCCACUAGUACAUGAGGAUCACCCAUGUACGGUCGCCCGGUGUGAUCCACUAGGACCGGGUCAGCAAGAU [(Trp1)-(Ms2)-(T)'-(M)'-(Trp2)_Design24]” was tested, and the “apparent KD of MS2 coat protein” value was 48.5 nM. For “UAAAAUAUCUGGGUGUAGGUAAUAACAGAUACCAGCCAGAUAACUGGCCCUUGGCAGCUGAAAACAUGAGGAUCACCCAUGUAAA [TheoAS 22 #OpenEnded #Ms2Late]”, the “apparent KD of MS2 coat protein” value was 236 nM. “UCAUGACAUGGGAAUAAAUAAGAAGGCGAAGGAGCGUGAAGAUUCACAGGUAGGUCGCGCAAAAUACAUGAGGAUCACCCAUGUU [JR_Nu_ExcArginiA_Sub032]” was tested, and the “apparent KD of MS2 coat protein” value was 43.9 nM.

Same assay, conditions: Eterna round: R107; input ligand: tryptophan 2.4 mM
“AGUAAUCUAAGAGAUACCAGACGGUAUAUAACAUGAGGAUCACCCAUGUUUUGGGUGUACGUCCCUUGGCAGCUCAAAAUGAUAA [#06 Same State - Theophylline B]” was tested, and the “apparent KD of MS2 coat protein” value was 382 nM. In the case of “CUAAGAGCGGCGGCCGCCACUGGUAACCGAGAGGAGGAGCUUCUGAACAUGAGGAUCACCCAUGUCAGGACCGGGUCGUCUUAGA [Same State - Tryptophan B]”, the “apparent KD of MS2 coat protein” value is reported as 16.6 nM. For “AUAACAUGAGGAUCACCCAUGUAAGGUGAUACCAGACGAAGUAAAGUCCCUUGGCAGCACAAGUAAAGUUACGAAUAUUGAUAGA [JR_SSTheophyA_Sub004]”, the “apparent KD of MS2 coat protein” value was 634 nM. “CCGUCACAUGAGGAUCACCCAUGUGCGGAAGGAGCGGACGAAAGUCCAGGUAGGUCGCCGUAUAGCCAAUGACCAGCAGUGUCGG [XARG-A 21]” was tested, and the “apparent KD of MS2 coat protein” value was 14.4 nM. “GUGGCGAUCACGGCCGCCACUGAGCAGGUCGAGCUUGACAUGAGGAUCACCCAUGUCUGACGAUACAGGACCGGGUGAUCUCCGC [Titiinanon]” was tested, and the “apparent KD of MS2 coat protein” value was 19.7 nM.
